Assay results from article PMC11050402.

Experiments:
[1] = biological target: human epidermal growth factor receptor type 2 (HER2) (human (endogenous in SKOV-3 and BT-474)) (UniProt P04626); assay: radioligand binding; LigandTracer Yellow on living SKOV-3 cells, 3 and 9 nM (1, 3 and 9 nM for [177Lu]Lu-G3), room temperature, with 100 nM human serum albumin; InteractionMap analysis, 1:2 model; apparent
[2] = biological target: human serum albumin (human) (UniProt P02768); assay: SPR; Biacore T200, as described by Yin and co-authors (ref. 40); DOTA conjugates without radionuclide
[3] = biological target: murine serum albumin (murine) (UniProt P07724); assay: as above
UniProt P07724, sequence (P07724 25-608): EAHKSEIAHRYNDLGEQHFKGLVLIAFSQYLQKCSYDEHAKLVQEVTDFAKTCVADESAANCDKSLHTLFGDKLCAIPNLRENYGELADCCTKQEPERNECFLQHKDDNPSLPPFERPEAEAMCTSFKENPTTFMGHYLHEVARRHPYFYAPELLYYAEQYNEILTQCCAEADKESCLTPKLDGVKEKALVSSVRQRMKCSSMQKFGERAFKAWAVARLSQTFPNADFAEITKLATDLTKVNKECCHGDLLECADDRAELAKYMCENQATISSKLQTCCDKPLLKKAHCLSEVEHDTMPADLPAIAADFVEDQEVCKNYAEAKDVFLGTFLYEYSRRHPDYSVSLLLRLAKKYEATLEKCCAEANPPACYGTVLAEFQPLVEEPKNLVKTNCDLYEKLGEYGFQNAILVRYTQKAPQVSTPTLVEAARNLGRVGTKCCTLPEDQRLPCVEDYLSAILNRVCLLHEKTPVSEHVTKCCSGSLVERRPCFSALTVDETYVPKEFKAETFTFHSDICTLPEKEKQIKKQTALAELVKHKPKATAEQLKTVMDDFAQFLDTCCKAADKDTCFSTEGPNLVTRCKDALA

UniProt P02768, sequence (P02768 25-609): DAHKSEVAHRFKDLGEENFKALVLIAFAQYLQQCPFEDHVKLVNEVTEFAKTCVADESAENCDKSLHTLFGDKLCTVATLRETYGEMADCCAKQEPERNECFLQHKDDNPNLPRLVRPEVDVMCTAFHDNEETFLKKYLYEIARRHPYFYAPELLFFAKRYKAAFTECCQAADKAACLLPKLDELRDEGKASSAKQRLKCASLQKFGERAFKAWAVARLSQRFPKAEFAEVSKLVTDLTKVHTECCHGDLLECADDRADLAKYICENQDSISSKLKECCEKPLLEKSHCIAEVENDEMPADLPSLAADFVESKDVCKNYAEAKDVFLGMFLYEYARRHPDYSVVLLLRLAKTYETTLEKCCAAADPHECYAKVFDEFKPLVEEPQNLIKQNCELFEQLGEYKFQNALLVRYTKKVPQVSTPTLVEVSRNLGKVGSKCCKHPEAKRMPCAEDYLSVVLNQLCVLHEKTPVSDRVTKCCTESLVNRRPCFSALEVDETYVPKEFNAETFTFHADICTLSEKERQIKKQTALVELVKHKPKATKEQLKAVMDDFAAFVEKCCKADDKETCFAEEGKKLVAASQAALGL

Row | KD2 (second interaction, 1:2 model) [1] | Kd [2] | koff [2] | kon [2] | Kd [3] | koff [3] | kon [3] | KD1 (first interaction, 1:2 model) [1] | Substance
1 | 34 nM |  |  |  |  |  |  |  | non-ABD-fused DARPin G3 (control protein) (designed binder)
2 | 24 nM | 0.00182 µM | 0.000238 s⁻¹ | 131000 M⁻¹ s⁻¹ | 0.00846 µM | 0.00518 s⁻¹ | 61300 M⁻¹ s⁻¹ | 901 pM | G3-ABD-DOTA (designed binder)
3 | 67 nM | 0.0354 µM | 0.000302 s⁻¹ | 8530 M⁻¹ s⁻¹ | 0.0813 µM | 0.00191 s⁻¹ | 23500 M⁻¹ s⁻¹ | 1290 pM | ABD-G3-DOTA (designed binder)
